In patent publication US20250346669A1:

Molecular target: CD3 on CD3 expressing Jurkat cells (UniProt P07766)
Experiment: flow cytometry on CD3 expressing Jurkat cells; concentration of half maximal binding

| EC50 [nM] | Substance |
| --- | --- |
| 0.3 | OKT3 (IgG version of the monospecific anti-CD3 antibody) |
| 23.7 | OKT3 Fab fragment |
| 0.6 | UCHT1 (IgG version of the monospecific anti-CD3 antibody) |
| 0.6 | UCHT1 Fab fragment |
